The text below walks through data of patent US20240317871A1 (IMMUNOMIC THERAPEUTICS, published 2024).

The target in assay [1] is T1, Human HEVM recombinant protein (Sino Biological, 10334-H02H) (human, UniProt Q92956 39-202).
T1 construct: construct known only by catalogue number; also called HVEM; human HVEM
T1 sequence (looked up): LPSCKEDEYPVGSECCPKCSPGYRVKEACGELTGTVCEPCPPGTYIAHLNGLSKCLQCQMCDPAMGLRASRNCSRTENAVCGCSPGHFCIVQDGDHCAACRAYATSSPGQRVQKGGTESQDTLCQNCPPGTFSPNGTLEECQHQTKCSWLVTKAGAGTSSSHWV
As to the kind of experiment: competition ELISA, competitor LIGHT-His. The procedure, abridged:
(§1)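 HVEM protein coated at 4 ug/ml; antibody serially diluted 3-fold over 7 points (final top 100 nM for BTLA, 325 nM for LIGHT), premixed with 400 nM His-tagged competitor and incubated 1 Hr at RT. Bound competitor detected by HRP-anti-His/TMB at 450 nm; IC50 calculated.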
Background: In an ELISA, binding on a coated surface is turned into a signal by an enzyme label.

A further assay has as its target T2, human HVEM (human, UniProt Q92956 39-202, limits assumed).
T2 sequence (looked up): T1 sequence (looked up)
As to the kind of experiment: ELISA.

The target of the next assay is T3, murine HVEM (murine, UniProt Q80WM9 39-206, limits assumed).
T3 construct: also called Mouse
T3 sequence (looked up): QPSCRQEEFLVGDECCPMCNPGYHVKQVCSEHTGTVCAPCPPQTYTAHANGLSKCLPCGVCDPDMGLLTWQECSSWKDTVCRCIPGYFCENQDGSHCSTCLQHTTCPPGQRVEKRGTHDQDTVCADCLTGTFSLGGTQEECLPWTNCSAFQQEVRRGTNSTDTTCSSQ
Description: ELISA.

A further assay addresses T4, cynomolgus monkey HVEM (cynomolgus monkey, UniProt A0A2K5W0R1 39-203).
T4 sequence: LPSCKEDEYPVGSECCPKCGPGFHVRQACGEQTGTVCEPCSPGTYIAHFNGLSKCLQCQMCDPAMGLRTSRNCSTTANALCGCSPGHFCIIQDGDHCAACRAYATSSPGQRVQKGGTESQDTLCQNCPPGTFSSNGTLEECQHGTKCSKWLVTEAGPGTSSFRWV
Description: ELISA.

A further assay deals with T5, His-tagged human HVEM (human, UniProt Q92956 39-202, limits assumed).
T5 construct: Analyte of the BLI assay, 200 nM in PBS; not shown: His tag
T5 sequence (looked up): T1 sequence (looked up)
As to the kind of experiment: BLI OctetRed96, mAb captured, 200 nM His-HVEM. A digest of the protocol:
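Murine anti-human HVEM antibodies captured from culture supernatant on anti-mouse IgG Fc biosensors, then associated with 200 nM His-tagged human HVEM in PBS, followed by dissociation in PBS. koff, kon and KD obtained by curve fitting.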

The target in assay [2] is T1, Human HEVM recombinant protein (Sino …). Description: competition ELISA, competitor BTLA-His. The procedure, abridged: as §1

B1: Ab_072 (H5S20-15A13A) (antibody, V domains shown)
VH: EVQLQQSGAELVKPGASVKLSCTASGFNIKDTYMHWVKQRPEQGLEWIGRIDPANGNTKYDPKFQGKATITADTSSNTAYLQLSSLTSEDTAVYYCATSGGSSYDYWGQGTTLTVSS
VL: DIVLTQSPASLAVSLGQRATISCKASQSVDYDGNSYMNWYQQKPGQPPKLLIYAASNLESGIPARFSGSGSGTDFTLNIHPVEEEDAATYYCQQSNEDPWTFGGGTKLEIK
notes: also called Ab_72
Take B1: the IC50 in assay [1] was 252 nM; in assay [2] it was 1.6 nM. Moreover, the ELISA signal amounted to 3.36 in the assay with human HVEM, 0.045 with murine HVEM and 0.062 with cynomolgus monkey HVEM. The molecule further yielded an equilibrium dissociation constant (Kd) with His-tagged human HVEM of 11.7 nM. The same molecule displayed a koff with His-tagged human HVEM of 0.0197 s⁻¹. In addition, in the assay with His-tagged human HVEM, the kon turned out to be 1.69e+06 M⁻¹ s⁻¹.

B2: Ab_080 (H5S20-27A23A) (antibody, V domains shown)
VH: EVQLQQSGTVLARPGASVKMSCKASGYSFTSYWMHWLKQRPGQGLEWIGAIYPGNSDTVFNQKFKGKAKLTAVTSATTAYMELSSLTNEDSAVYYCTKEPRTIEGAWFTYWGQGTLVTVSA
VL: DIVMTQSPSSLTVPAGEKVTMSCKSSQSLLNSENQKNYLTWYQQKPGQPPKLLIYWASTRESGVPDRFTGSGSGTDFTLTISSVQAEDLAVYYCQSDYSYPLTFGAGTKLELK
notes: also called Ab_80
For the molecule B2, the results for the IC50 in assay [1] and in assay [2] were 37.3 nM and 1.8 nM, respectively. Besides, the ELISA signal with human HVEM turned out to be 3.07; in the assay with murine HVEM it was 0.048; with cynomolgus monkey HVEM, 2.26. In the assay with His-tagged human HVEM, the Kd stood at 7.09 nM. This molecule returned a koff with His-tagged human HVEM of 0.00115 s⁻¹. In the assay with His-tagged human HVEM, this molecule had a kon of 162000 M⁻¹ s⁻¹.

B3: Ab_043 (H5S15-29A24A) (antibody, V domains shown)
VH: EVQLQQSGAELVRPGALVKLSCKASGFNIKDDYMHWVKQRPEQGLEWIGWIDPENGNTIYDPKFQGKASITADTSSNTAYLQLSSLTSEDTAVYYCARGYSSSPYWGQGTLVTVSA
VL: DIVLTQSPASLAVSLGQRATISCKASQSVDYDGNSYMNWYQQKPRQPPKLLIYAASNLESGIPARFRGSGSGTDFTLNIHPVEEEDAATYYCQQSNEDPFTFGSGTKLEIK
notes: also called Ab_43
For the molecule B3, the IC50 in assay [1] came to 15.3 nM; in assay [2], 1.1 nM. Further, the ELISA signal in the assay with human HVEM is 3.22; with murine HVEM, 0.043; with cynomolgus monkey HVEM, 0.058. In the assay with His-tagged human HVEM, this molecule registered a Kd of 3.92 nM. This molecule also yielded a dissociation rate constant (koff) with His-tagged human HVEM of 0.00148 s⁻¹. The molecule further came in with a kon in the assay with His-tagged human HVEM of 378000 M⁻¹ s⁻¹.

B4: Ab_078 (H5S20-45A34A) (antibody, V domains shown)
VH: EVQLQQSGAELVRSGASVKLSCAASGFNIKDYYMHWVKQRPEQGLEWIGWIDPENGDTEFAPKFQGKATLTADTSSNTAYLQLSSLTSEDTAVYYCNTRTLGYWGQGTLVTVSA
VL: QIVLTQSPALMSASPGEKVTMTCTASSSVSYMYWYQQKPRSSPKPWIYLTSNLASGVPARFSGSGSGTSYSLTISSMEAEDAATYYCQQWSSNPLTFGAGTKLELR
notes: also called Ab_78
Regarding B4, the values for the IC50 in assay [1] and in assay [2] were 14.5 nM and 1.5 nM, respectively. For the same molecule, the ELISA signal worked out at 3.08 with human HVEM, 0.046 with murine HVEM and 0.063 with cynomolgus monkey HVEM. The molecule also had a Kd in the assay with His-tagged human HVEM of 4.95 nM. The molecule also came in with a koff in the assay with His-tagged human HVEM of 0.0023 s⁻¹. The same molecule displayed a kon in the assay with His-tagged human HVEM of 466000 M⁻¹ s⁻¹.

A word on the IC50: it is the concentration at which inhibition is half-maximal. Broadly, the Kd is the constant that tells how readily two partners part at equilibrium. Broadly, the koff is the rate constant with which the complex falls apart. For orientation: kon means the rate constant with which the complex forms.
